In the series the target is Spen RRM2-4 RRM3 Mt ((SHARP named as human homolog for the pET28a constructs; gene listed as mouse NM_019763.2)) (UniProt Q96T58). Briefly: fluorescence anisotropy. The conditions noted are these: pH 8.3; FA: 45 mM KCl, 5 mM NaCl, 50 mM Tris pH 7.5 (WT) or 8.3 (RRM3 Mt), 5% glycerol, RNA 1-3 nM, room temperature 40-60 min; competition EMSA: 50 mM Tris pH 7.5 ….
Sequence of UniProt Q96T58 (Q96T58 whole entry): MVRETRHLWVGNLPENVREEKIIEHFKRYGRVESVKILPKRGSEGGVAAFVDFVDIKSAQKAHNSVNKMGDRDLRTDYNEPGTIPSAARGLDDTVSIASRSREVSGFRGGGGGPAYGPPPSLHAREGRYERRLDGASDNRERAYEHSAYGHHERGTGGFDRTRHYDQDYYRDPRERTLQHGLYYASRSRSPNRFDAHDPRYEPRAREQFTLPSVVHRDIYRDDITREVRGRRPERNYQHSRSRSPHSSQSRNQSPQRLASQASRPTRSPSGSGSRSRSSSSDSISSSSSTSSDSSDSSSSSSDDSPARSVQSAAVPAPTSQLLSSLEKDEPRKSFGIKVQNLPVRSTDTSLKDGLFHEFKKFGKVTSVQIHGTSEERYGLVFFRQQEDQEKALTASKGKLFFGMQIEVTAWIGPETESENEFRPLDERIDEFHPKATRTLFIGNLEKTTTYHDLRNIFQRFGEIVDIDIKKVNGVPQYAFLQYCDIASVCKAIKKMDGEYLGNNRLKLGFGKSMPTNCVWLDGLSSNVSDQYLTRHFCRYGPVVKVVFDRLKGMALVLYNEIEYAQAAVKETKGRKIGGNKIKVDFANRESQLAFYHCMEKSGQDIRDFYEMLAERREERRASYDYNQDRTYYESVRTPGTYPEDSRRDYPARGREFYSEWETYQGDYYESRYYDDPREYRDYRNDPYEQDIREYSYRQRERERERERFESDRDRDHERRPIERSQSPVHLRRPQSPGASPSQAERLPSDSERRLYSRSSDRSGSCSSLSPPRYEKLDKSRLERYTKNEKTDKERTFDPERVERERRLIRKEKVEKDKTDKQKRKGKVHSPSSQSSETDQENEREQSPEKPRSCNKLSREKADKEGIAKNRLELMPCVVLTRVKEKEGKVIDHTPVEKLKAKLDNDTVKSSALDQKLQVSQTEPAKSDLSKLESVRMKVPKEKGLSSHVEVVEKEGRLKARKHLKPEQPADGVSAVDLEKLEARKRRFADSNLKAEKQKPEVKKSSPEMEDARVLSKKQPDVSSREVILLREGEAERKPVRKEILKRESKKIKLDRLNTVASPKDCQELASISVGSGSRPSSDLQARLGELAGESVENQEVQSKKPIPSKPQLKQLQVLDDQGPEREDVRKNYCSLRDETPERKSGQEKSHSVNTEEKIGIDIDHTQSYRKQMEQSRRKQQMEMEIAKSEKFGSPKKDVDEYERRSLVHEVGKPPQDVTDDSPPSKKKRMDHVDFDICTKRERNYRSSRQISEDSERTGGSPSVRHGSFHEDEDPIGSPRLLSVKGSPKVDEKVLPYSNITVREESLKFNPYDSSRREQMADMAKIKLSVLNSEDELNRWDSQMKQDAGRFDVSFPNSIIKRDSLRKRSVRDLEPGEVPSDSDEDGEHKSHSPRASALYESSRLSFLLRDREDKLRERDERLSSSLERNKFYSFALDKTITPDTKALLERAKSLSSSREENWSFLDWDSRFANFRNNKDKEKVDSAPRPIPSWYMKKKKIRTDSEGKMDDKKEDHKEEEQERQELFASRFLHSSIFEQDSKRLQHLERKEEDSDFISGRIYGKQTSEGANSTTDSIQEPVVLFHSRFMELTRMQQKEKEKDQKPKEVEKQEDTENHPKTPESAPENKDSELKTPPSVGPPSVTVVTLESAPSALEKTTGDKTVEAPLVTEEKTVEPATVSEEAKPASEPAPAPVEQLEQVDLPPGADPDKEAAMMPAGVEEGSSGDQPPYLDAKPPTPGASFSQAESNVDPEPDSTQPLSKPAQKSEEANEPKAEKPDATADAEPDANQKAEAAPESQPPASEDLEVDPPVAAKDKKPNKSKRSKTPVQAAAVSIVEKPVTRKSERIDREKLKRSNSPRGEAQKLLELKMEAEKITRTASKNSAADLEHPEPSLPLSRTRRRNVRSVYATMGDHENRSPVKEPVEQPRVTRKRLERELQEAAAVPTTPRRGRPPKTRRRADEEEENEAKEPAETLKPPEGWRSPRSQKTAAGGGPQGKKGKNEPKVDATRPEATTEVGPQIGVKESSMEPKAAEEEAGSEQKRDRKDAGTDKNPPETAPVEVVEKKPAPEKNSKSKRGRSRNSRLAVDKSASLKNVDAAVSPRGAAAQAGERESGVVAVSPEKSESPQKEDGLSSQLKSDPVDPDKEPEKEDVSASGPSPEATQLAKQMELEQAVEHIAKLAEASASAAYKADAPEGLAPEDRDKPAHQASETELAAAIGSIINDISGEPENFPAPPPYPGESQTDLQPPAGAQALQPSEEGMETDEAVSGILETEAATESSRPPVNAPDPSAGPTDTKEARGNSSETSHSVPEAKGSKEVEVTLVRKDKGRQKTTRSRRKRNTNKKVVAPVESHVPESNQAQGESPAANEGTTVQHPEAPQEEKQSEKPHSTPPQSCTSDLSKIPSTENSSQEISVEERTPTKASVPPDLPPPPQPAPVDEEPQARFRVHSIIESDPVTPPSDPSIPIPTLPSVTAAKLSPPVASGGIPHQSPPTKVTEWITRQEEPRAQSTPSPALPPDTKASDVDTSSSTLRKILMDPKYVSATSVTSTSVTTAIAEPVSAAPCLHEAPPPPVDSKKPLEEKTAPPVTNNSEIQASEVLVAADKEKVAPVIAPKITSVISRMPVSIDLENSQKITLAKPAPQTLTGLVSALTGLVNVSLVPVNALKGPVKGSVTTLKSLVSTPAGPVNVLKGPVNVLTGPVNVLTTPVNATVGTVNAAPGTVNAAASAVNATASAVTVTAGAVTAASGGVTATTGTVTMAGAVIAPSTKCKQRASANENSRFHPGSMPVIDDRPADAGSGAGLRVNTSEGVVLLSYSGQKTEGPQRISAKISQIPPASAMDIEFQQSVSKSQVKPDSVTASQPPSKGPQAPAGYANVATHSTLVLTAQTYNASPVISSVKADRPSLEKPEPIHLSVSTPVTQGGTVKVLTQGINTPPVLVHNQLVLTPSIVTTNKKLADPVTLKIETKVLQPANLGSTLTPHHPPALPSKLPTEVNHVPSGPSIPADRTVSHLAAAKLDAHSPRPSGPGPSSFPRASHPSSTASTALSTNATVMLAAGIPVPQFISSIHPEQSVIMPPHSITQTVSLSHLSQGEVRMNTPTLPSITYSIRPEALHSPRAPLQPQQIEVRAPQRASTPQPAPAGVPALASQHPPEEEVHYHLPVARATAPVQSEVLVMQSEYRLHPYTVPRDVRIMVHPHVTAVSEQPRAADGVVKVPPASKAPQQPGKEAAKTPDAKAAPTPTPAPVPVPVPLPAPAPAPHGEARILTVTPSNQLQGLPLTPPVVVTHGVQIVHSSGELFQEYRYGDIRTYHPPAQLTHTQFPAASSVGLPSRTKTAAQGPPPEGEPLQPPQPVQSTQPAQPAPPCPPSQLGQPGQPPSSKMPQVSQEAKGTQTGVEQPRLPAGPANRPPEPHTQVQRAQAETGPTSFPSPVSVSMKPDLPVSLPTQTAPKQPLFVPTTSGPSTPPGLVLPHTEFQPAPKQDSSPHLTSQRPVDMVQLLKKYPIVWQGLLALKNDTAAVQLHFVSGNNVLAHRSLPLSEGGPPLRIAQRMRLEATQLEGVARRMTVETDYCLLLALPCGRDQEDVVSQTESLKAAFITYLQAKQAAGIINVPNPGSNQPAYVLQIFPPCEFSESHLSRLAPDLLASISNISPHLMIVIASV
As for “GAAAUUUCUCUCUGGGCCUUAUAGCAGGAGUACUCUGUUCCCUUUUGUGUCUUGUCUAAUGUCCGGUGCACCAAUCUGUUCUCGUGUUCAAUUCAUGUAUGUUCGUGUCCAGU [ERV 495 (113 nt)]”, the binding signal (affinity relative to RRM2-4) is 0.5.

The sequence “GAUCAGAGUAACUGUCUUGGCUACAUUCUUUUCUCUCGCCACCUAGCCCCUCUUCUCUUCCAGGUUUCCAAAAUGCCUUUCCAGGCUAGAACCCAGGUUGUGGUCUGCUGG [ERV 302 (111 nt)]” returned a binding signal (affinity relative to RRM2-4) of 0.5.

In turn, “GAUUCCAGGCAGAACUGUUGAGCAUAGAUAAUUUUCCCCCCUCAGGCCAGCUUUUUCUUUUUUUAAAUUUUGUUAAUAAAAGGGAG [ERV 205 (86 nt)]” displayed a binding signal (affinity relative to RRM2-4) of 0.5.

“GGAACUCGUUCCUUCUCCUUAGCCCAUCGGGGCCAUGGAUACCUGCUUUUAACCUUUCUCGGUCCAUCGGGACCUCGGAUACCUG [Xist A-repeat (85 nt)]” showed a binding signal (affinity relative to RRM2-4) of 0.5.

The sequence “GGUACCUUAAAUCCUUGCUCUCACCCAAAAGAUUCAGAGACAAUAUCCUUUUAUUACUUAGGGUUUUAGUUUACUACAAAAGUUUCUACAAAAAAUAAAGCUUUUAUAA [ERV 411 (109 nt)]” displayed a binding signal (affinity relative to RRM2-4) of 0.5.

Sequence “GGUUAAAACUGCUAUUGUUCCAUUGACUGCAGCUUGCAGUUUGAUUUCAAAUUUAAGAUCUUUAAUUCACCUGUAUACUGUAAUUAAGAUAAUUACAAGAGUAAUCAUCUUAUG [ERV 509 (114 nt)]” showed a binding signal (affinity relative to RRM2-4) of 0.5.

The record behind these values is publication PMC7282817.
